Measured values as given in article PMC4407828 (Nature communications, 2015).

Biological target: GST-Tip60 (UniProt Q92993 1-513)
Assay: pull-down

Sequence of GST-Tip60 (Q92993 whole entry): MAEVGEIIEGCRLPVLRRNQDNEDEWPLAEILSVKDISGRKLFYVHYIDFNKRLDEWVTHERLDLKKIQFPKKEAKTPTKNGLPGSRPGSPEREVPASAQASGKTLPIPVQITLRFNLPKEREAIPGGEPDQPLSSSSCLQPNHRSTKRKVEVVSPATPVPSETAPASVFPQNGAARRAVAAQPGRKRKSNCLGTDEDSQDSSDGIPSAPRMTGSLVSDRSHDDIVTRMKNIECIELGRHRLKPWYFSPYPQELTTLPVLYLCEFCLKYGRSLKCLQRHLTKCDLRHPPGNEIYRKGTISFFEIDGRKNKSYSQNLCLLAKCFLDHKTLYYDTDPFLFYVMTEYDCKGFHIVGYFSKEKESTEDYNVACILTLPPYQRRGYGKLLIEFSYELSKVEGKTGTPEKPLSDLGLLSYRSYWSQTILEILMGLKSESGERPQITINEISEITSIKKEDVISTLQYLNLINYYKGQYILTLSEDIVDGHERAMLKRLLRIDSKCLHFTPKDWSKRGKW

B1: His-ATF3 (natural protein, UniProt P18847 1-181, looked up)
chain: MMLQHPGQVSASEVSASAIVPCLSPPGSLVFEDFANLTPFVKEELRFAIQNKHLCHRMSSALESVTVSDRPLGVSITKAEVAPEEDERKKRRRERNKIAAAKCRNKKKEKTECLQKESEKLESVNAELKAQIEELKNEKQHLIYMLNLHRPTCIVRAQNGRTPEDERNLFIQQIKEGTLQS
binding result: binds
